Patent publication US20020110883

Biological target: microtubules

B1: Kip3A 353 protein (protein)
chain: MAVEDSTLQVVVRVRPPTPRELDSQRRPVVQVVDERVLVFNPEEPDGGFPGLKWGGTHDGPKKKGKDLTFVFDRVFGEAATQQDVFQHTTHSVLDSFLQGYNCSVFAYGATGAGKTHTMLGREGDPGIMYLTTVELYRRLEARQQEKHFEVLISYQEVYNEQIHDLLEPKGPLAIREDPDKGVVVQGLSFHQPASAEQLLEILTRGNRNRTQHPTDANATSSRSHAIFQIFVKQQDRVPGLTQAVQVAKMSLIDLAGSERASSTHAKGERLREGANINRSLLALINVLNALADAKGRKTHVPYRDSKLTRLLKDSLGGNCRTVMIAAISPSSLTYEDTYNTLKYADRAKEIRLKGNSKLEGKPIPNPLLGLDSTRTGHHHHHH
Km for microtubule stimulation (coupled PK/LDH ATPase assay, Michaelis-Menten fit): Km for microtubule stimulation of 4.6 ug/ml | Vmax of microtubule-stimulated ATPase (coupled PK/LDH ATPase assay, Michaelis-Menten fit): Vmax 0.85 uM ADP/s | kcat of microtubule-stimulated ATPase (from Vmax): corresponds to a kcat value of 15s^-
